Test results published in paper PMC5371579, “Expression of a new laccase from Moniliophthora roreri at high levels in Pichia pastoris and its potential application in micropollutant degradation” (AMB Express, 2017).

Key:
Assay in all cases: purified protein
Type in all cases: biochemical, Moniliophthora roreri
purified protein [1] = substrate: CCn1c(=NN=c2sc3cc(S(=O)(=O)O)ccc3n2CC)sc2cc(S(=O)(=O)O)ccc21; conditions: 100 mM citrate phosphate buffer at optimal pH (pH 2 stated for ABTS)
purified protein [2] = substrate: COc1cccc(OC)c1O; conditions: 100 mM citrate phosphate buffer, pH 4 (optimum)
purified protein [3] = substrate: COc1cc(C=NN=Cc2cc(OC)c(O)c(OC)c2)cc(OC)c1O; conditions: 100 mM citrate phosphate buffer, pH 4 (optimum)
purified protein [4] = substrate: COc1ccccc1O; conditions: 100 mM citrate phosphate buffer, pH 5 (optimum)

B1: Mrl2 (Moniliophthora roreri MCA 2997) (protein)
chain: SIGPIADLVISNQDVSPDGFTRSAVVAGGDTIGPLIVGNKNDNLQINVVNNLDDDTMLQSTSIHWHGFFQQSTNWADGTAFVNQCPIAKGNSFLYDFDATDQAGTFWYHSHLSTQYCDGLRGPIVIYDPDDPHASLYDVDDESTVITLADWYHTKAKEITFGTPDSTLINGLGRWSQGNETDLSVITVTSGQRYRMRLINTACDAAYTFSIDNHTMTVIEADAVNIEPIEVDSLTIYAGQRYSFVLNADQAVGNYWIRANPNIGTMGYTNGINSAILRYDTAEEEEPDVLDITSTNSLSEADLVPLENPGAPGDPVVGGVDYALHLDFAFTSAATFTVNDATFVPPTVPVLLQILSGAQTADTLLPSGSVVALPSNSTIELSMTGGLLGLEHPIHLHGHNFDVVRVAGSTEYNYENPIRRDVVNAGSTSDNVTIRFTTDNPGPWILHCHIDWHLEAGFAIVFAEATDEWVDTIDPSDAWENLCPTYDALSDDDL
notes: native signal peptide replaced by S. cerevisiae alpha-factor leader (Kex2 cleavage; mature N-terminus SIGPI from primer); no tag (stop codon in reverse primer); codon-optimized gene; secreted from Pichia pastoris X-33, DEAE-purified, glycosylated (~90 kDa; calculated 54 kDa); EC 1.10.3.2
**Q.** Which Km (purified protein [1]) does the source give for B1 here?
**A.** Its Km is 24.13 ± 1.9 µM.

**Q.** What about the kcat (purified protein [1]) of the same protein?
**A.** The kcat was 316 s⁻¹.

**Q.** And the kcat/Km (purified protein [1])?
**A.** The kcat/Km was 1.31e+07 M⁻¹ s⁻¹.

**Q.** And the Km (purified protein [2])?
**A.** The Km was 358 ± 58.5 µM.

**Q.** And the kcat (purified protein [2])?
**A.** Its kcat is 74 s⁻¹.

**Q.** What about the kcat/Km (purified protein [2]) of the same protein?
**A.** Its kcat/Km is 207000 M⁻¹ s⁻¹.

**Q.** And the Km (purified protein [3])?
**A.** Its Km is 12.45 ± 1.6 µM.

**Q.** What about the kcat (purified protein [3]) of the same protein?
**A.** Its kcat is 21 s⁻¹.

**Q.** What about the kcat/Km (purified protein [3]) of the same protein?
**A.** The kcat/Km was 1.68e+06 M⁻¹ s⁻¹.

**Q.** And the Km (purified protein [4])?
**A.** Its Km is 2235 ± 117.5 µM.

**Q.** What about the kcat (purified protein [4]) of the same protein?
**A.** The kcat was 37 s⁻¹.

**Q.** And the kcat/Km (purified protein [4])?
**A.** The kcat/Km was 16000 M⁻¹ s⁻¹.
